Data on four molecules can be found in patent publication US7183387 (Genentech, dated 2007).

Where a chain is given by its changes, count along the chain named. Names and notes keep the numbering of the source.

Assay [1] deals with T1, human neonatal Fc receptor (FcRn), biotinylated (human, UniProt P55899 24-297; P61769 21-119, biotinylated (biotin-X-NHS)).
T1 construct: captured on streptavidin plates
Description: FcRn ELISA.
Description: FcRn Binding ELISA: For measuring FcRn binding activity of IgG variants, ELISA plates were coated with 2 µg/ml streptavidin (Zymed, South San Francisco) in 50 mM carbonate buffer, pH 9.6, at 4° C. overnight and blocked with PBS-0.5% BSA, pH 7.2 at room temperature for one hour. Biotinylated FcRn (prepared using biotin-X-NHS from Research Organics, Cleveland, Ohio and used at 1–2 µg/ml) in PBS-0.5% BSA, 0.05% polysorbate 20, pH 7.2, was added to the plate and incubated for one hour. Two fold serial dilutions of IgG standard (1.6–100 ng/ml) or variants in PBS-0.5% BSA, 0.05% polysorbate 20, pH 6.0, were added to the plate and incubated for two hours. Bound IgG was detected using peroxidase labeled goat F(ab')_2 anti-human IgG F(ab')_2 in the above pH 6.0 buffer (Jackson ImmunoResearch, West Grove, Pa.) followed by 3,3',5,5'-tetramethyl benzidine (Kirgaard & Perry Laboratories) as the substrate. […] Absorbance was read at 450 nm on a Vmax plate reader (Molecular Devices, Menlo Park, Calif.). Titration curves were fit with a four-parameter nonlinear regression curve-fitting program (KaleidaGraph, Synergy software, Reading, Pa.). Concentrations of IgG variants corresponding to the mid-point absorbance of the titration curve of the standard were calculated and then divided by the concentration of the standard corresponding to the mid-point absorbance of the standard titration curve.

Assay [2] deals with T2, human FcγRIIA-R131 α subunit extracellular domain-His6-GST fusion protein (human, UniProt P12318 34-217).
T2 construct: ECD-6His-GST fusion made in 293 cells, coated on the plate; also called FcγRIIA-Arg131; not shown: glutathione S-transferase (GST)
T2 sequence: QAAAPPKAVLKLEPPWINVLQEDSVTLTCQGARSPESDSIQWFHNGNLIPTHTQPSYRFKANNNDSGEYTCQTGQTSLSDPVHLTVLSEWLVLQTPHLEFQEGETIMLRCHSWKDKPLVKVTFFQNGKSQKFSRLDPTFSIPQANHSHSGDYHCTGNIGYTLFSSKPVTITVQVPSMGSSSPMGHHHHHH
Description: ELISA, IgG:IgE hexamer on coated FcγRIIA-R131-GST; value said to be carried over from Table 6, 7 or 8. A general note: An ELISA detects its analyte on a solid surface through an enzyme-linked reagent.

Assay [3] addresses T3, human FcγRIIA-H131 α subunit extracellular domain-His6-GST fusion protein (human, UniProt P12318 34-217).
T3 construct: also called FcγRIIA-His131; not shown: glutathione S-transferase (GST)
T3 sequence: T2 sequence with R134H
The experiment in a line: ELISA, IgG:IgE hexamer on coated FcγRIIA-H131-GST.

Assay [4] deals with T3, human FcγRIIA-H131 α subunit …. Description: ELISA; binding ratio on FcγRIIA-H131 divided by that on FcγRIIA-R131.
Assay [5] deals with T2, human FcγRIIA-R131 α subunit …. The experiment in a line: ELISA, IgG:IgE hexamer on coated FcγRIIA-R131-GST; separate assays run together with the H131 assays.
Assay [6] deals with T4, human FcγRIIIA-Val158 with human γ-chain on stably transfected CHO cells (human, UniProt P08637 17-254; P30273 19-86).
T4 construct: whole, on cells; CHO cells stably transfected with the α- and γ-chains of the receptor; also called FcγRIIIA-Val158 (cell-based assay); FcγRIIIA-V158
Description: flow cytometry, monomeric IgG on CHO cells with FcγRIIIA-Val158 α- and γ-chains. For orientation: In flow cytometry, cells or beads pass a laser one at a time.

The target of assay [7] is T5, human FcγRIIIA-Phe158 α subunit extracellular domain-His6-GST fusion protein (human, UniProt P08637 17-208).
T5 construct: ELISA-format target; also called FcγRIIIA-F158; not shown: glutathione S-transferase (GST)
The experiment in a line: ELISA, IgG:IgE hexamer on coated FcγRIIIA-Phe158-GST; value carried over from an earlier table (printed in Table 8).

Assay [8] has as its target T6, human FcγRIIIA-Phe158 with human γ-chain on stably transfected CHO cells (human, UniProt P08637 17-254; P30273 19-86).
T6 construct: whole, on cells; CHO cells stably transfected with the α- and γ-chains of the receptor; also called FcγRIIIA-Phe158 (cell-based assay)
Description: flow cytometry, monomeric IgG on CHO cells with FcγRIIIA-Phe158 α- and γ-chains.
Description: CHO cell transfection was carried out using Superfect (Qiagen) according to the manufacturer's instructions. […] Receptor expression levels were determined by staining with anti-FcγRIII monoclonal antibody 3G8 (Medarex). Binding of IgG1 variants was performed by adding monomeric IgG in staining buffer to 5×10^5 cells and incubating in 96 well round-bottom tissue culture plates (Costar, Cambridge, Mass.) at 4° C. for 30 min. Cells were washed three times with staining buffer and IgG binding detected by addition of 1:200 PE-F(ab')_2 fragment of goat anti-human IgG and incubation for 30 min at 4° C. After washing, immunofluorescence staining was analyzed on a FACScan flow cytometer using Cellquest software (Becton Dickinson). Dead cells were excluded from analysis by addition of 1 μg/ml propidium iodide.
For FcγRIIIA, the selected variants were assayed in the ELISA-format as well as on stable-transfected CHO cell lines expressing the γ-chains (FcγRIIIA-Phe158 or FcγRIIIA-Val158) with the associated human α-chain.

For assay [9], the target named is T7, human FcγRIIIA-Val158 α subunit extracellular domain-His6-GST fusion protein (human, UniProt P08637 17-208).
T7 construct: ELISA-format target; also called FcγRIIIA-V158; not shown: glutathione S-transferase (GST)
Description: ELISA format, hexameric complex on FcγRIIIA-Val158.

Assay [10] has as its target T5, human FcγRIIIA-Phe158 α subunit …. Description: ELISA format, hexameric complex on FcγRIIIA-Phe158; separate assays run together with the Val158 assays.
The target in assay [11] is T8, human FcγRIIA-H131 α subunit extracellular domain-6His-GST fusion (human, UniProt P12318 34-217).
T8 construct: also called FcγRIIA-His131; not shown: glutathione S-transferase (GST)
T8 sequence: T2 sequence with R134H
Description: ELISA, IgG:IgE hexamers on receptor-GST.

The target of assay [12] is T9, human FcγRIIIA-F158 α subunit extracellular domain-6His-GST fusion (human, UniProt P08637 17-208).
T9 construct: also called FcγRIIIA-Phe158; not shown: glutathione S-transferase (GST)
The experiment in a line: ELISA, IgG:IgE hexamers on receptor-GST.

The target of assay [13] is T10, human FcγRIIA-R131 α subunit extracellular domain-6His-GST fusion (human, UniProt P12318 34-217).
T10 construct: also called FcγRIIA-Arg131; not shown: glutathione S-transferase (GST)
T10 sequence: T2 sequence
The experiment in a line: ELISA, IgG:IgE hexamers on receptor-GST.

The target of assay [14] is T11, human FcγRIIB α subunit extracellular domain-6His-GST fusion (human, UniProt P31994 43-217).
T11 construct: not shown: glutathione S-transferase (GST)
T11 sequence: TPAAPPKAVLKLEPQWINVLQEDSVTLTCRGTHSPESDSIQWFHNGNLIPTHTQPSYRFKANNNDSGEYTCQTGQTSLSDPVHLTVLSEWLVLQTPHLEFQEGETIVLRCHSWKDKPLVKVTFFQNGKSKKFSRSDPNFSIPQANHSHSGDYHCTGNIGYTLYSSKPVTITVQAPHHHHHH
The experiment in a line: ELISA, IgG:IgE hexamers on receptor-GST.

T5 sequence (P08637 other isoform, or with tags, fused parts or gaps, form in doubt): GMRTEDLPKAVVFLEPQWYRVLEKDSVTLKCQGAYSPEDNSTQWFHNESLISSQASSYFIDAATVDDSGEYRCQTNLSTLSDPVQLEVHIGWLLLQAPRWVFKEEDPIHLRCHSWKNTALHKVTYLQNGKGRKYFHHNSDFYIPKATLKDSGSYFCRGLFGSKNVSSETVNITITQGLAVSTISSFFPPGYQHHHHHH
T1 sequence (P55899 24-297 limits assumed, chain 1 of 2): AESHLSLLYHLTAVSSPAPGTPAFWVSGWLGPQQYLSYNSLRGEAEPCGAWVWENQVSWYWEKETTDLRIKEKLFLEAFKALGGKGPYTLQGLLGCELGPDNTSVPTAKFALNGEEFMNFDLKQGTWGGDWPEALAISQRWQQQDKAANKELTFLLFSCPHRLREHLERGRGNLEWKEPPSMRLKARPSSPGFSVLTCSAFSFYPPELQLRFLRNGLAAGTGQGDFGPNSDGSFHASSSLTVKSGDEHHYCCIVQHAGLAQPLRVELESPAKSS
T1 sequence (P61769 21-119 limits assumed, chain 2 of 2): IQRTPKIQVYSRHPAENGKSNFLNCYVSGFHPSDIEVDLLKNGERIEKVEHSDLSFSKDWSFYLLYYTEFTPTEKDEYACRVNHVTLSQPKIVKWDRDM
T6 sequence (P08637 17-254, chain 1 of 2): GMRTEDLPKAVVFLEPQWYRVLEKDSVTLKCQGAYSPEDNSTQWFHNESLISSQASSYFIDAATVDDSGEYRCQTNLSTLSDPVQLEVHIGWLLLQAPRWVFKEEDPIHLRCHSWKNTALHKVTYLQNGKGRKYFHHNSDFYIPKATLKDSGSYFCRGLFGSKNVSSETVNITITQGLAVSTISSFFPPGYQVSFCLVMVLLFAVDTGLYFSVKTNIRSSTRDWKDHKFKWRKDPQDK
T6 sequence (P30273 19-86, chain 2 of 2): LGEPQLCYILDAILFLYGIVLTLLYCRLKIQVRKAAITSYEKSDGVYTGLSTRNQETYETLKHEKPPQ
T7 sequence (P08637 other isoform, or with tags, fused parts or gaps, form in doubt): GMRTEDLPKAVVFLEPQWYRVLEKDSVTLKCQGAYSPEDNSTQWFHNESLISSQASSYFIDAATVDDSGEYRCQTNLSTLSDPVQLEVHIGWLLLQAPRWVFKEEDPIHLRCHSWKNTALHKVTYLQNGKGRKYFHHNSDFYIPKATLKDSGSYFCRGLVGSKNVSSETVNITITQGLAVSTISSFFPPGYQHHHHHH
T4 sequence (P08637 17-254 F176V, chain 1 of 2): as the sequence (P08637 17-254, chain 1 of 2) above, with F160V counted along it
T4 sequence (P30273 19-86, chain 2 of 2): as the sequence (P30273 19-86, chain 2 of 2) above

B1: anti-IgE E27 IgG1 T307Q (antibody)
heavy: not shown
light: DIQLTQSPSSLSASVGDRVTITCRASKPVDGEGDSYLNWYQQKPGKAPKLLIYAASYLESGVPSRFSGSGSGTDFTLTISSLQPEDFATYYCQQSHEDPYTFGQGTKVEIKRTVAAPSVFIFPPSDEQLKSGTASVVCLLNNFYPREAKVQWKVDNALQSGNSQESVTEQDSKDSTYSLSSTLTLSKADYEKHKVYACEVTHQGLSSPVTKSFNRGEC
Turning to B1, the binding result in assay [1] is “binds”.

B2: anti-IgE E27 IgG1 variant Lys320Ala (antibody)
heavy: not shown
light: B1 light
notes: also called K320(339)A; IG2 48
As for B2, the “ratio of binding of the variant to that of native IgG1” value in assay [2] is 1.14 ratio (variant/native IgG1); in assay [3], 1.13 ratio (variant/native IgG1); in assay [5], 1.05 ratio (variant/native IgG1). In addition, in [4], the H131/R131 is 1.1 ratio (H131 value/R131 value).

B3: anti-IgE E27 IgG1 variant Ser298Ala/Glu333Ala/Lys334Ala (antibody)
heavy: EVQLVESGGGLVQPGGSLRLSCAVSGYSITSGYSWNWIRQAPGKGLEWVASIKYSGETKYNPSVKGRITISRDDSKNTFYLQMNSLRAEDTAVYYCARGSHYFGHWHFAVWGQGTLVTVSSASTKGPSVFPLAPSSKSTSGGTAALGCLVKDYFPEPVTVSWNSGALTSGVHTFPAVLQSSGLYSLSSVVTVPSSSLGTQTYICNVNHKPSNTKVDKKVEPKSCDKTHTCPPCPAPELLGGPSVFLFPPKPKDTLMISRTPEVTCVVVDVSHEDPEVKFNWYVDGVEVHNAKTKPREEQYNATYRVVSVLTVLHQDWLNGKEYKCKVSNKALPAPIAATISKAKGQPREPQVYTLPPSREEMTKNQVSLTCLVKGFYPSDIAVEWESNGQPENNYKTTPPVLDSDGSFFLYSKLTVDKSRWQQGNVFSCSVMHEALHNHYTQKSLSLSPGK
light: B1 light
notes: also called IG2 110
Turning to B3, the “ratio of binding of the variant to that of native IgG1” value in assay [6] was 1.65 ratio (variant/native IgG1); in assay [7] it was 1.51 ratio (variant/native IgG1); in [8] it was 3.42 ratio (variant/native IgG1); in assay [9], 1.11 ratio (variant/native IgG1); in assay [10], 2.17 ratio (variant/native IgG1).

B4: E27 IgG1 variant S267(280)G (antibody)
heavy: not shown
light: B1 light
notes: also called IG2 189
Regarding B4, the “ratio to native IgG1” value in [11] was 0.59; in assay [12] it was 0.08; in assay [13], 1.18; in assay [14], 0.95.
